The record followed here is patent CN114751980A (XIAMEN BOANG BIOTECHNOLOGY CO LTD, dated 2022).

In the assay the target is T1, 重组N蛋白 (新冠病毒 (SARS-CoV-2), UniProt P0DTC9 1-419).
T1 construct: also called 新冠病毒N蛋白
In words: indirect ELISA.

B1: 单抗阻断剂A3-4 (antibody, V domains shown)
VH: EVQLEESGGGLVQPGGSRKLSCIASGIIFHNFGMHWIRQAPEKGLEWVAYISGLSRNISYADTVKGRFTISRDNPKNTLFLQMTSLRSEDTAMYYCSRGWAYDAAFWGQGTLVTVS
VL: DVVMTQTPLTLSVTIGQPASFSCKSSRSLLSSNGKIYLNWLLQRPGQSPKRLIYLVSKLDSGVPDRFTGSGSGTDFTLQINRVEAEDLGVYYCVQGTHFPLTFGAGTKLELKR
notes: also called 新冠病毒检测用单抗阻断剂
B1: the binding result is reported as “no binding”.
